The values below come from patent US20150086555A1.

Settings in all cases: remark: other sources report otherwise
The target of assay [1] is recombinant soluble homotrimeric HA of A/Japan/305/57 (H2N2) (Influenza A virus A/Japan/305/1957(H2N2)). The assay can be described thus: HA microarray, BCC supernatant.
Assay [2] deals with recombinant soluble homotrimeric HA of A/Netherlands/219/03 (H7N7) (Influenza A virus A/Netherlands/219/03(H7N7)). The experiment in a line: HA microarray, BCC supernatant.
Assay [3] deals with recombinant soluble homotrimeric HA of A/Solomon Islands/3/06 (H1N1) (Influenza A virus A/Solomon Islands/3/2006(H1N1)). The experiment in a line: HA microarray, BCC supernatant.
Assay [4] deals with recombinant soluble homotrimeric HA of A/Wisconsin/67/05 (H3N2) (Influenza A virus A/Wisconsin/67/2005(H3N2)). The assay can be described thus: HA microarray, BCC supernatant.
Assay [5] deals with recombinant soluble homotrimeric HA of A/duck/Yangzhou/02/05 (H8N4) (Influenza A virus A/duck/Yangzhou/02/2005(H8N4)). The experiment in a line: HA microarray, BCC supernatant.
In assay [6] the target is recombinant soluble homotrimeric HA of A/swine/Ontario/01911-2/99 (H4N6) (Influenza A virus A/Swine/Ontario/01911-2/99 (H4N6)). The assay can be described thus: HA microarray, BCC supernatant.
For assay [7], the target named is recombinant soluble homotrimeric HA, A/Egypt/3300-NAMRU3/08 H5N1 (Influenza A virus A/Egypt/3300-NAMRU3/2008(H5N1)). The assay can be described thus: microarray, transfection SN IgG, trimeric HA.
Assay [8] deals with recombinant soluble homotrimeric HA, A/Japan/305/57 H2N2 (Influenza A virus A/Japan/305/1957(H2N2)). The experiment in a line: microarray, transfection SN IgG, trimeric HA.
The target of assay [9] is recombinant soluble homotrimeric HA, A/Netherlands/219/03 H7N7 (Influenza A virus A/Netherlands/219/03(H7N7)). The experiment in a line: microarray, transfection SN IgG, trimeric HA.
Assay [10] deals with recombinant soluble homotrimeric HA, A/Solomon Islands/3/06 H1N1 (Influenza A virus A/Solomon Islands/3/2006(H1N1)). The assay can be described thus: microarray, transfection SN IgG, trimeric HA.
Assay [11] addresses recombinant soluble homotrimeric HA, A/South Carolina/1/18 H1N1 (Influenza A virus A/South Carolina/1/18 (H1N1)). The assay can be described thus: microarray, transfection SN IgG, trimeric HA.
The target of assay [12] is recombinant soluble homotrimeric HA, A/Wisconsin/67/05 H3N2 (Influenza A virus A/Wisconsin/67/2005(H3N2)). The experiment in a line: microarray, transfection SN IgG, trimeric HA.
The target in assay [13] is recombinant soluble homotrimeric HA, A/chicken/Vietnam/NCVD-016/08 H5N1 (Influenza A virus A/chicken/Vietnam/NCVD-016/2008(H5N1)). The assay can be described thus: microarray, transfection SN IgG, trimeric HA.
The target in assay [14] is recombinant soluble homotrimeric HA, A/duck/Yangzhou/02/05 H8N4 (Influenza A virus A/duck/Yangzhou/02/2005(H8N4)). The assay can be described thus: microarray, transfection SN IgG, trimeric HA.
The target in assay [15] is recombinant soluble homotrimeric HA, A/northern shoveler/California/HKWF115/07 H6N4 (Influenza A virus A/northern shoveler/California/HKWF115/2007(H6N1)). The assay can be described thus: microarray, transfection SN IgG, trimeric HA.
Assay [16] addresses recombinant soluble homotrimeric HA, A/swine/Ontario/01911-2/99 H4N6 (Influenza A virus A/Swine/Ontario/01911-2/99 (H4N6)). The assay can be described thus: microarray, transfection SN IgG, trimeric HA.
For assay [17], the target named is recombinant soluble homotrimeric HA of A/California/4/09 (H1N1) (Influenza A virus A/California/04/2009(H1N1)). The experiment in a line: HA microarray, BCC supernatant.
For assay [18], the target named is recombinant soluble homotrimeric HA of A/chicken/Vietnam/NCVD-016/08 (H5N1) (Influenza A virus A/chicken/Vietnam/NCVD-016/2008(H5N1)). The experiment in a line: HA microarray, BCC supernatant.
Assay [19] deals with recombinant soluble homotrimeric HA of A/northern shoveler/California/HKWF115/07 (H6) (Influenza A virus A/northern shoveler/California/HKWF115/2007(H6N1)). The experiment in a line: HA microarray, BCC supernatant.
For assay [20], the target named is recombinant soluble homotrimeric HA, A/California/4/09 H1N1 (Influenza A virus A/California/04/2009(H1N1)). The assay can be described thus: microarray, transfection SN IgG, trimeric HA.
Assay [21] deals with recombinant homotrimeric HA A/California/4/09 H1N1 (Influenza A virus A/California/04/2009(H1N1)). The assay can be described thus: protein microarray, purified IgG, trimeric HA.
Assay [22] deals with recombinant homotrimeric HA A/Egypt/3300-NAMRU3/08 H5N1 (Influenza A virus A/Egypt/3300-NAMRU3/2008(H5N1)). The experiment in a line: protein microarray, purified IgG, trimeric HA.
The target of assay [23] is recombinant homotrimeric HA A/Hong Kong/1073/99 H9N2 (Influenza A virus A/Hong Kong/1073/99 (H9N2)). The assay can be described thus: protein microarray, purified IgG, trimeric HA.
The target of assay [24] is recombinant homotrimeric HA A/Japan/305/57 H2N2 (Influenza A virus A/Japan/305/1957(H2N2)). The assay can be described thus: protein microarray, purified IgG, trimeric HA.
For assay [25], the target named is recombinant homotrimeric HA A/Netherlands/219/03 H7N7 (Influenza A virus A/Netherlands/219/03(H7N7)). The assay can be described thus: protein microarray, purified IgG, trimeric HA.
The target of assay [26] is recombinant homotrimeric HA A/South Carolina/1/18 H1N1 (Influenza A virus A/South Carolina/1/18 (H1N1)). The assay can be described thus: protein microarray, purified IgG, trimeric HA.
Assay [27] has as its target recombinant homotrimeric HA A/Wisconsin/67/05 H3N2 (Influenza A virus A/Wisconsin/67/2005(H3N2)). The assay can be described thus: protein microarray, purified IgG, trimeric HA.
The target of assay [28] is recombinant homotrimeric HA A/chicken/Vietnam/NCVD-016/08 H5N1 (Influenza A virus A/chicken/Vietnam/NCVD-016/2008(H5N1)). The experiment in a line: protein microarray, purified IgG, trimeric HA.
Assay [29] deals with recombinant homotrimeric HA A/duck/Yangzhou/02/05 H8N4 (Influenza A virus A/duck/Yangzhou/02/2005(H8N4)). The experiment in a line: protein microarray, purified IgG, trimeric HA.
Assay [30] has as its target recombinant homotrimeric HA A/northern shoveler/California/HKWF115/07 H6N4 (Influenza A virus A/northern shoveler/California/HKWF115/2007(H6N1)). The experiment in a line: protein microarray, purified IgG, trimeric HA.

B1: TCN-547 (5092_F11) (antibody, V domains shown)
VH: QVQLQESGPGLVKPSQTLSLTCTVSGDSISSVDHYWSWIRQHPVKGLEWIGFMYYSASTYYNPSLKSRVTISTDTSKNQFSLRLSSVTAADTAVYYCARGTCAGDCSLHYYYYGLDVWGQGRTVTVSS
VL: DIQMTQSPSSLSASVGDRVTITCRASQSISSYLNWYQHKPGKAPKVLMYAVSILQSGVPSRFSGSGSGADFTLTISSLQPEDFATYYCQQSYSSPLTFGGGTKVEIK
For the molecule B1, the Trimeric HA Binding: RLU came to 40 RLU in assay [1]; 401 RLU in assay [2]; 155 RLU in assay [3]; 16900 RLU in [4]; 278 RLU in assay [5]; 252 RLU in [6]. Moreover, the Trimeric HA Binding: RLU stood at 16800 RLU in [7]; 1350 RLU in assay [8]; 2090 RLU in assay [9]; 1080 RLU in assay [10]; 2020 RLU in assay [11]; 6970 RLU in assay [12]. For the same molecule, the Trimeric HA Binding: RLU was found to be 1320 RLU in assay [13], 3340 RLU in [14], 2620 RLU in [15] and 1600 RLU in assay [16].

B2: TCN-549 (5092_P04) (antibody, V domains shown)
VH: QVQLVQSGAEVKKPGASVKVSCKASGYTFTGYYMHWVRQAPGQGLEWMGWINPNSGDTNYAQKFQGRVTMTRDTSITTAYMELSSLRSDDTAVYYCARDSPYSSSWSFFDYWGQGPLVTVSS
VL: not shown
Regarding B2, the Trimeric HA Binding: RLU in [17] amounted to 338 RLU; in assay [1], 387 RLU; in [2] it was 1130 RLU; in [3], 284 RLU; in assay [4] it was 30900 RLU; in assay [18] it was 498 RLU. The Trimeric HA Binding: RLU in assay [19] is 1100 RLU; in assay [20], 622 RLU; in [7] it was 18600 RLU; in assay [8], 1080 RLU; in assay [9] it was 8480 RLU; in [10], 640 RLU. For the same molecule, the Trimeric HA Binding: RLU was 2340 RLU in [11]; 51600 RLU in assay [12]; 1600 RLU in assay [13]; 9450 RLU in [14]; 996 RLU in assay [15]; 1880 RLU in assay [16]. Besides, the Trimeric HA Binding: RLU in [21] was found to be 196 RLU; in assay [22] it was 6920 RLU; in assay [23] it was 450 RLU; in assay [24], 413 RLU; in [25], 193 RLU; in assay [26], 72 RLU. The Trimeric HA Binding: RLU amounted to 27200 RLU in assay [27], 177 RLU in [28], 166 RLU in assay [29] and 112 RLU in assay [30].
